Columns and labels:
[1] = tested on: recombinant S6K2 (highly purified)
[2] = tested on: PI3-K (p85a/p110a complex)
PDK1 (recombinant) = tested on: T1, PDK1 (recombinant)
T1 sequence (O15530 1-556, species assumed, looked up): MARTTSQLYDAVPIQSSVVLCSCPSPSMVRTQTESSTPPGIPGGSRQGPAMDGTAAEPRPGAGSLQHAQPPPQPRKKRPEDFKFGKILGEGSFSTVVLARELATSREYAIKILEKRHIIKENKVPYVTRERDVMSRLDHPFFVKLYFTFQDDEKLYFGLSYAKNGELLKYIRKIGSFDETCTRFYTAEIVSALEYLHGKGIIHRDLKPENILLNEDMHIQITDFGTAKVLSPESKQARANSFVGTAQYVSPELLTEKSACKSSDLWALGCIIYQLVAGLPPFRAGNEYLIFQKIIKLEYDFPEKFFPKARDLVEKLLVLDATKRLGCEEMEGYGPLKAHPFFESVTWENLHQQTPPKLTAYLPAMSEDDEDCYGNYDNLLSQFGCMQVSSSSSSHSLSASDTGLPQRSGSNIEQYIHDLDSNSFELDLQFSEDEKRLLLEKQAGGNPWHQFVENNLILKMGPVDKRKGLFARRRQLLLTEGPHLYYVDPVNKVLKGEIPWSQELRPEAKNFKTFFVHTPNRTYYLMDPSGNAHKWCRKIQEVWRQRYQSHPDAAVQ

[3] = tested on: recombinant S6K1 (highly purified)

Sequence of recombinant S6K2 (highly purified) (chain, as listed by the source): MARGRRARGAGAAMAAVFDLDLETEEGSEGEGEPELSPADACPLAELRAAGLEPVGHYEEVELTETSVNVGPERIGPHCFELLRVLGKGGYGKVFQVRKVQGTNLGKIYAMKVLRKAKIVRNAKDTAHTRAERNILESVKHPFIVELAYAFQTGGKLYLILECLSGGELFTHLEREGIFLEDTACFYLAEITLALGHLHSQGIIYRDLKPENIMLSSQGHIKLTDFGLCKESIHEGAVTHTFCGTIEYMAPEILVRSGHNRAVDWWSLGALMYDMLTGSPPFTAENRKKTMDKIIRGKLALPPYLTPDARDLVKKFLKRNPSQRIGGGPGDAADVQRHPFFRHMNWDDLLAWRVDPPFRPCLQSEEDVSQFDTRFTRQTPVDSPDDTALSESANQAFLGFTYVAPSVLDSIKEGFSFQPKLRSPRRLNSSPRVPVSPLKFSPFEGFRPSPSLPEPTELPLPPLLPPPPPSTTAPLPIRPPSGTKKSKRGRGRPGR
Sequence of PKB/Akt (recombinant) (P31749 whole entry): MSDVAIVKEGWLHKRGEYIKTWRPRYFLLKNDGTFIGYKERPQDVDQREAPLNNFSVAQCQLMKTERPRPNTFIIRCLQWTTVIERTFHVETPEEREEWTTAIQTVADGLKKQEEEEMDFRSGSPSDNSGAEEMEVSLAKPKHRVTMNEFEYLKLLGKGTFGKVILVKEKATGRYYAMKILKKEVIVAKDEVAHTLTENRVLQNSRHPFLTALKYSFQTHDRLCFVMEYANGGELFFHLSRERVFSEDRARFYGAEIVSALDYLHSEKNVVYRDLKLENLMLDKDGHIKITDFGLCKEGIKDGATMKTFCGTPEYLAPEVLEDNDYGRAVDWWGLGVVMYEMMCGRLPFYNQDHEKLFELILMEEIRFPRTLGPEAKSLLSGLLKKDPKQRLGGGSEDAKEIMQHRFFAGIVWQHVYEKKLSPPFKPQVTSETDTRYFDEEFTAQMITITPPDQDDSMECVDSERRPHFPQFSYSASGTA

Substance: full-length p300
- in vitro acetylation by immunoprecipitated full-length p300 (PKCa (recombinant)): We detected weak, but reproducible acetylation of PKCa
- in vitro acetylation by immunoprecipitated full-length p300 [1]: S6K2 is acetylated in the presence of p300 and AcCoA
- site of in vitro acetylation (MALDI mass spectrometry of Arg-C peptide 297 to 310) [1]: contains a lysine at position 2 (residue 298 in S6K2). This peptide was sequenced and the acetylated lysine was confirmed (data not shown)
- in vitro acetylation by immunoprecipitated full-length p300 [2]: no acetylation is observed for PKB/Akt, PDK1, PI3-K (p85a/p110a complex) under conditions used
- in vitro acetylation by immunoprecipitated full-length p300 (PKB/Akt (recombinant)): no acetylation is observed for PKB/Akt, PDK1, PI3-K (p85a/p110a complex) under conditions used
- in vitro acetylation by immunoprecipitated full-length p300 (PDK1 (recombinant)): no acetylation is observed for PKB/Akt, PDK1, PI3-K (p85a/p110a complex) under conditions used
- site of in vitro acetylation (MALDI tandem mass spectrometry of tryptic peptide 509Q-R522) [3]: this peptide was acetylated on the Lysine 516
